Measured values published in the nanobody polyreactivity screen of Harvey et al. (2022).

Test: yeast display, Sf9 membrane polyspecificity reagent, FACS + sequencing; frameworks hold sequencing errors
Method in brief: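 After 36–48 hours of galactose induction, yeast (Saccharomyces cerevisiae BJ5465) displaying a synthetic nanobody library were stained at 4 °C for 1 hour with 10% biotinylated, detergent-solubilized Sf9 membrane reagent. Streptavidin microbeads enriched the stained cells before FACS sorting into low and high (top ~1%) gates on anti-HA and streptavidin fluorescence. Each clone's polyreactivity label reflects its gate of origin.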

Sequence	polyreactivity (PSR sort gate)
QFQLVESGGGLVQAGGSLRLSSAASGSIFYTNAMGWYRQAPGKEREFVAGITRRGTSTNYADSVKGRFTISRDNAKNSVYLQMNSLKPEVTAVYYCNARYYLYWGQGTQVTVSS	low polyreactivity
QVQLVESGGGLVQAGGSLRLSCAASGSIFPRNAMGWYRQAPGKERELVAGISSGGSTNYADSVKGRFTISRDNAKNTVYLQMNSLKPEDTAVYYCAARQWIRNLGFGYSIYYYWGLGTQVTVSS	high polyreactivity
QVQLVESGGGLVQAGGSLRLSCAASGSTFPYNAMGWYRQAPGKERELVAAISWSGGRTYYADSVKGRFTISRDNAKNTVYLQMNSLKPEDTAVDYCAKAVKQYGFYYWGQGTQVTVSS	high polyreactivity
QVQLVESGGGLVQAGGSLRISCAASVSIFARYAMGWYRQAPGQERELVAAISSRGGSTYYADSVKGRFTISRDNAKNTVYLQMNSLKPEDTAVYYCNKGYLVRPGVYWGQGTQVTVSS	high polyreactivity
QVQLVESGGGLVQAGGSLRISCAASGSTFDVNAMGWYRQAPGKERELVAAISWNSGSTYYADSVKGRFTISRDNAKNTVYLQMNSLKPEDTAVYYCAATYGTGRRSKYGYWGQGTQVTVSS	high polyreactivity
QVQLVESGGGLVQAGGSLRLSCAASGRTSFNYTMGWYRQAPGKERELVAAITSGGDTYYADSVKGRFTISRDNAKNTVYLQMNSLKPEDTAVYYCNADPDFPSKFDDPYSYDYWGQGTQVNVSS	low polyreactivity
QVQLVESGGGLVQAGGSLRLSCAASGIIFYPYAMGVYRKAPGKEREMVADITSGGGTNYADSVKGRFTISRDYAKNTVYLKMNSLKPEDTAVYYCAAEVRGYHWGTYYEFYYWGQGTQVTVSS	low polyreactivity
QVQLVESGGGLVQAGGSLRLSCAASGFIFDYYAMGWYRQAPGKERELVAAITSRGGSTYYADSVKGRFTISRDNAKNTVYLQMNSLKQEDTAVYYCAARRRSAEYNYWGHGTQVTVSS	high polyreactivity
QVQLVESGGGLVQAGGSLRLSCAASGTFAFYTMGWYRPAPGKERELVAAISWDGGDTYYADSVKGRFTISRDNAKNTVYLQMNSLKPEDTAVYYCAADYSNSGYGYWGQGTQVTVSS	low polyreactivity
QVQLEESGGGLVQAGGSLRLSCAASGSTFDRYGMGWYRQAHWKERELVAAINSGDITNYADSVKGRFTISRDNAKNTVYLQMNSLKPEDTAVYYCAATQSRYYSDDPYYYWGQGTQVTVSS	low polyreactivity
QVQLVESGGGLVQAGGSLRLSCAASGLILGRYAMGWYRQAPGKERELVAAITRGGRTYYADSVKGRFTISRDNAKNTVYLQMNSLKPEDPAVYYCAATFGYTRNDYDYWGHGTQVTVSS	high polyreactivity
QVQLVESGGRLVQAGRSLRLSCAASGRTFGRYAMGWYRQAPGKERELVAAITRGGGSTYYADSVKGRFTISRDNAKYTVSLQMNSLKPEDTAVYYCAARNFRSPYGYDYWGQGTQVTVSS	high polyreactivity
QVELVESAGGLVQAGGSLRLICAASGLTFDAYAMGWYRQAPGKERELVAAISSGGNTYYADSVKWRFTISRDNAKNTVYLQMNSLKPEDTAVYYCAATFIQVVVNVQLYDYDYWGQGTQVTVSS	low polyreactivity
QVQLVESGGGLVQAGGSLRLSCAASGGTLKYYAMGWYRQAPGKEREVVATISSRGGSTYYADSVKGRFTISRDNAKNTVYLQMNSLKPEDTAVYYCARRYWVQSRYPEMDYWGQGTQVTVSS	high polyreactivity
QVQLVESGGGLVQAGGSLRLSCAASGFIFVLNVMGWYRQAPGKERELVAAITWRGTSTYYADSVKGRFTISRDNAKNTVYLQMNSLKPEDTAVYYCAVKGFSTRSYREFDYWGQGTQVTVSS	low polyreactivity
QLQREESGGGLVQAGGSLRLSCAASGSTFEKNAMGWYRQAPAKERELVAALSNGVSTYDADSVKGRFPISRDNAKNSVYLLMNSLKPEDTAVYYCAADLFFGAETVYYAKFDYWGQGTQVTVSS	low polyreactivity
QVQIVESGGGLVQAGGSLRLSCDASGSIFYSNAIGWYRQAPGKERELVASIRGSGVSTYYADSVKGRFTISRDNAKNTVYLQMNSLKPEDTAVYYCAARYVRSYFGFYYWGQGTQVTVSS	high polyreactivity
QVQLVESGGGLVQAGGSLRLSCAASGSIFVTNAMGWYRQAPGKERELVAAISWRGGSTYYADSVKGRFTISRDNAKNTVYLQMNSLKPEDTGVYDCNTYHPYWGSGFDYWGLGTQVTVSS	low polyreactivity
QVQLVESGGGLVHAGGSLRLSCAASGSIFPSNAMGWYREAPGKERELVAAISQSGGRTYYADSVKGRFTISRDNAKNTVYLQMNSLKPEDTAVYYCAADHRRAGMDYWGQGTQVTVSS	low polyreactivity
QVQLVESGGGLVQAGGSLRLSCAASGFIFYKNAMGWYRQAPGKERELVAAINWSGGSTYYADSVKGRFTISRDNAKNTVYLQMNSLKPEDTAVYYCAVVVYSGYRHYYWGQGTQVTVSS	high polyreactivity
QVQLVESGGGLVQAGGSLRLSCAASGGTIAPYAMVWYRQAPGKERELVATISYSGTSTNYADSVKGRFTITRDNAKNTVYLQMNSLKPEDTAVYYCYAVLYARQRDRWARYDYWGQGTQVTVSS	high polyreactivity
QVQLVESGGGLVQAGGSLRLSCAASGSILSAYSMGWYRQAPGKARELVAAISKSGSSTYYSDSVKGRFTISRDNAKNTVYLQMNSLKPEDTAVYYCAAESSSYYGYYIYYYWGQGTQVTVSS	high polyreactivity

Sequence	polyreactivity (PSR sort gate)
QVQLVESGGGLVQAGGSLRLSCAASGFIFGGDPMGWYRQARGSDRELVAAISSSGGRTYYADSVKRRFTISRDNAKNNVYLQLNSLKPEDTAVYSCAVPRFGSAAKRYYYWGQGTQVTVTS	high polyreactivity
QVQQQESGGGLVQAGGSLRQSYAASGYIFPSLAMGWYRQAPGKEREFVAAIGRGSTNNYADSVKGRFTISRDNAKNTAYQQMNSLKPEDTAVYYCAAAASPLTRHLYWGQGTQVTVSS	low polyreactivity
QVQLVESGGGLVHAGGSLRLSCAASGSTFQLNAMGWYRQAPGKERELVAAISTRGGSTYYADSLKGRFTISRDNAKNTVYLQMNSLKPEDTAVYYCAARLYTRRDYWGQATQVTVSS	high polyreactivity
QVQLVESGGCIVQAGGSLRLSCAASGLNLDGYAMGWYRQAPGKERELVAAITRSGGRTYYADSVKGRFTISRDNANNTVYLQMNSLKPEDTAVYYCAALGWSVRYRYDYWGQGTQVTVSS	high polyreactivity
QDQLVESGGGLFQAGGSLRLICAASGFIFSSYDMGWDRQAPGKERELVAAITTVGSRIYADSVKGRFTISRDNAKNTVDLQMNCLKPEDSAVYVCATVPGGSWLVLWWSTGGDDEYWGHGTQVTVSS	low polyreactivity
QVQLVESGGGLVQAGGSLRLSCAASGSIFDWNAMGWYRQAPGKERELVATISWDGGSTYYADSVKGRFTISRDNSKNTVYLQMNSLKPEDTAVYYCATVFTGKPAYYARTKYDYWGQGTQVTVSS	low polyreactivity
QVQRVESGGGLVQAGGSLLLSCAASGRTFRPYTMGWYRQAPGTERELVARITSGGSTNYADSVKGSFTISRDNAKNTVYLQMNSLKPEDTAVYYCNKPGDRHRLDEDYWGQGTQVTVSS	low polyreactivity
QVQLVESGGGLVQAGGSLRLSCAASGTTFYYNAMGWYRQAPGKERELVARISRSGGSTYADSVKGRFTISRDNAKNTVYLQMNSLKPEDTAVYYCNADAYGTPEFTSYAVRYDYWGQGTQVTVSS	low polyreactivity
QVQLVESAGGLVQAGGSLRLSCAASGITYDHYAMGWYRQAPGKERELVARITGTGDSTYYADSVKGRFTISRDNAKNTVYLQMNSLKPEDTAVYYCAAVSYRQYYGWGNYWGLGTQVTVSS	low polyreactivity
QVQLVESGGGLVQAGGSLRLSCAASGFTSWYAMGWYRQAPGKERELVAAISSGGSTNYADSVKGRFTISRDNAKNTVYLQLNSLKPEDTAVYYCNAEGYETGVPYFGFYFWGQGTQVTVSS	low polyreactivity
QVQLVESGGGLVQAGGSLRISCAASGRILLRNVMGWYRQAPGKERELVAVITRTGITYYAYSVKGRFTISRDNAKNTVYLQMNSLKPEDTAVYYCAAGLPKYEHDYWGQGTQVTVSS	low polyreactivity
QVHLVESGGGLVQAGGSLRLSCAASGSTFYRYAMGWYSQAPGKERELVAAISKRGGSTYYADSVKGRFTISRDNAKNTVYLQMNSLKPEDTAGQYCAADPFDYGGGDDYWGQGTQVTVSS	high polyreactivity
QVQLVESGGGLVQAGGSLRLICAASGSTFEYYAMGWYRPAPGKERELVAAINGIGGSTTYADSVKGRFTISRDNAKNTVYLQMNSLKPEDSAVYYCNADVARSKSQASAYDYWGQGTQVTVSS	low polyreactivity
QVQLVESGGGLVQAGGSLRLSCAASGRTFNCYAMGWYRQAPGKERELVAAISNGGNTNYADSVKGRFTISRDNAKNTVYLQMNSLKPEDTAVYYCAARATPAFSRRGYYWGQGTQVTVSS	high polyreactivity
QVQLVESGGGLVQAGGSLRLSCAASGSTFTLYAMGWYRQAPGQERELVAAIRRGGSTNYADSVKGRFTISRDNAKNPVYLQMNSLKPEDTAVYYSAADTYTSRSRYSGSGGYDYWGQGTQVTVSS	low polyreactivity
QVQLVESGGGLVQAGGSLRLSCAASGSTFSYNAMGWYRQAPGKERELVATISNTDSTNYADSVKGRFTISRDNAKNTVYLQMNSLKPEVTAVYYCAVVSARIDYEYWGQGTQVTVSS	low polyreactivity
QVQLVDSGGGLVQAGGSLRLSCAASGSIFDFYAMGWYRQAPGTERELVAAINSGGSTNYADSVKGRFTISRDNAKNTVYLQMNSLTPEDTAVYYCAARHPPYRGGYWGQGTQVTVSS	low polyreactivity
QVQLVESGGGLVQAGGSLRLSCAASGYTFRQYTIGWYRPAPGKERELVDAISRSGGSTYYADSVKGRFTISRDNAKNTVFLQMNSLKPEDTAVYYCNAEGYGRTDGFGYDYWGQGTQVTVSS	high polyreactivity
QVQLGESGGGLVQAGGSLRLSCAASGSIFGSYAMGWYRQATGKERELVAAISYSGGTTYYADSVKGRFTNSRDNAKNTVYLQMNSLKPEDTAVYYCNAPVAYEREYEYWGQGTQVTVSS	low polyreactivity
QVQLVESGGGLVQAGGSLRLSCAASGSTFWTNDMGWYRQAPGKERELVAAISQSAGDTYYADSVKGRFTISRDNAKNTVYLQMNSLKPEDTAVSYCAADLVFYPFTWDGYYYWGQGTQVTVSS	low polyreactivity
QVQLVDSGGGLVQAGGSLRLSCAASGLNFVINAMGWYRQAPGKERELDATISSGVSTNYADSVKGRFTISRDNAKNTVYLQMNSLKPEDTAVYDCNKGQTVSRGYRLYERYDYWGQGTQVTVSS	low polyreactivity
